Reference: PMC10540216, “Activity Guided Azide-methyllysine Photo-trapping for Substrate Profiling of Lysine Demethylases” (Journal of the American Chemical Society, 2023)

B1: ADAS_HUMAN (protein, UniProt O00116 59-658, looked up)
Alkyldihydroxyacetonephosphate …: KARRAASAATAAPTATPAAQESGTIPKKRQEVMKWNGWGYNDSKFIFNKKGQIELTGKRYPLSGMGLPTFKEWIQNTLGVNVEHKTTSKASLNPSDTPPSVVNEDFLHDLKETNISYSQEADDRVFRAHGHCLHEIFLLREGMFERIPDIVLWPTCHDDVVKIVNLACKYNLCIIPIGGGTSVSYGLMCPADETRTIISLDTSQMNRILWVDENNLTAHVEAGITGQELERQLKESGYCTGHEPDSLEFSTVGGWVSTRASGMKKNIYGNIEDLVVHIKMVTPRGIIEKSCQGPRMSTGPDIHHFIMGSEGTLGVITEATIKIRPVPEYQKYGSVAFPNFEQGVACLREIAKQRCAPASIRLMDNKQFQFGHALKPQVSSIFTSFLDGLKKFYITKFKGFDPNQLSVATLLFEGDREKVLQHEKQVYDIAAKFGGLAAGEDNGQRGYLLTYVIAYIRDLALEYYVLGESFETSAPWDRVVDLCRNVKERITRECKEKGVQFAPFSTCRVTQTYDAGACIYFYFAFNYRGISDPLTVFEQTEAAAREEILANGGSLSHHHGVGKLRKQWLKESISDVGFGMLKSVKEYVDPNNIFGNRNLL
B2: K1H1_HUMAN (protein, UniProt Q15323 1-416, looked up)
Keratin, type I cuticular Ha1: MPYNFCLPSLSCRTSCSSRPCVPPSCHSCTLPGACNIPANVSNCNWFCEGSFNGSEKETMQFLNDRLASYLEKVRQLERDNAELENLIRERSQQQEPLLCPSYQSYFKTIEELQQKILCTKSENARLVVQIDNAKLAADDFRTKYQTELSLRQLVESDINGLRRILDELTLCKSDLEAQVESLKEELLCLKSNHEQEVNTLRCQLGDRLNVEVDAAPTVDLNRVLNETRSQYEALVETNRREVEQWFTTQTEELNKQVVSSSEQLQSYQAEIIELRRTVNALEIELQAQHNLRDSLENTLTESEARYSSQLSQVQSLITNVESQLAEIRSDLERQNQEYQVLLDVRARLECEINTYRSLLESEDCNLPSNPCATTNACSKPIGPCLSNPCTSCVPPAPCTPCAPRPRCGPCNSFVR
B3: MPP6_HUMAN (protein, UniProt Q99547 1-160, looked up)
M-phase phosphoprotein 6: MAAERKTRLSKNLLRMKFMQRGLDSETKKQLEEEEKKIISEEHWYLDLPELKEKESFIIEEQSFLLCEDLLYGRMSFRGFNPEVEKLMLQMNAKHKAEEVEDETVELDVSDEEMARRYETLVGTIGKKFARKRDHANYEEDENGDITPIKAKKMFLKPQD
B4: NONO_HUMAN (protein, UniProt Q15233 1-471, looked up)
Non-POU domain-containing …: MQSNKTFNLEKQNHTPRKHHQHHHQQQHHQQQQQQPPPPPIPANGQQASSQNEGLTIDLKNFRKPGEKTFTQRSRLFVGNLPPDITEEEMRKLFEKYGKAGEVFIHKDKGFGFIRLETRTLAEIAKVELDNMPLRGKQLRVRFACHSASLTVRNLPQYVSNELLEEAFSVFGQVERAVVIVDDRGRPSGKGIVEFSGKPAARKALDRCSEGSFLLTTFPRPVTVEPMDQLDDEEGLPEKLVIKNQQFHKEREQPPRFAQPGSFEYEYAMRWKALIEMEKQQQDQVDRNIKEAREKLEMEMEAARHEHQVMLMRQDLMRRQEELRRMEELHNQEVQKRKQLELRQEEERRRREEEMRRQQEEMMRRQQEGFKGTFPDAREQEIRMGQMAMGGAMGINNRGAMPPAPVPAGTPAPPGPATMMPDGTLGLTPPTTERFGQAATMEGIGAIGGTPPAFNRAAPGAEFAPNKRRRY
B5: CKAP4_HUMAN (protein, UniProt Q07065 1-602, looked up)
Cytoskeleton-associated …: MPSAKQRGSKGGHGAASPSEKGAHPSGGADDVAKKPPPAPQQPPPPPAPHPQQHPQQHPQNQAHGKGGHRGGGGGGGKSSSSSSASAAAAAAAASSSASCSRRLGRALNFLFYLALVAAAAFSGWCVHHVLEEVQQVRRSHQDFSRQREELGQGLQGVEQKVQSLQATFGTFESILRSSQHKQDLTEKAVKQGESEVSRISEVLQKLQNEILKDLSDGIHVVKDARERDFTSLENTVEERLTELTKSINDNIAIFTEVQKRSQKEINDMKAKVASLEESEGNKQDLKALKEAVKEIQTSAKSREWDMEALRSTLQTMESDIYTEVRELVSLKQEQQAFKEAADTERLALQALTEKLLRSEESVSRLPEEIRRLEEELRQLKSDSHGPKEDGGFRHSEAFEALQQKSQGLDSRLQHVEDGVLSMQVASARQTESLESLLSKSQEHEQRLAALQGRLEGLGSSEADQDGLASTVRSLGETQLVLYGDVEELKRSVGELPSTVESLQKVQEQVHTLLSQDQAQAARLPPQDFLDRLSSLDNLKASVSQVEADLKMLRTAVDSLVAYSVKIETNENNLESAKGLLDDLRNDLDRLFVKVEKIHEKV
B6: PDC6I_HUMAN (protein, UniProt Q8WUM4 2-868, looked up)
Programmed cell death …: ATFISVQLKKTSEVDLAKPLVKFIQQTYPSGGEEQAQYCRAAEELSKLRRAAVGRPLDKHEGALETLLRYYDQICSIEPKFPFSENQICLTFTWKDAFDKGSLFGGSVKLALASLGYEKSCVLFNCAALASQIAAEQNLDNDEGLKIAAKHYQFASGAFLHIKETVLSALSREPTVDISPDTVGTLSLIMLAQAQEVFFLKATRDKMKDAIIAKLANQAADYFGDAFKQCQYKDTLPKEVFPVLAAKHCIMQANAEYHQSILAKQQKKFGEEIARLQHAAELIKTVASRYDEYVNVKDFSDKINRALAAAKKDNDFIYHDRVPDLKDLDPIGKATLVKSTPVNVPISQKFTDLFEKMVPVSVQQSLAAYNQRKADLVNRSIAQMREATTLANGVLASLNLPAAIEDVSGDTVPQSILTKSRSVIEQGGIQTVDQLIKELPELLQRNREILDESLRLLDEEEATDNDLRAKFKERWQRTPSNELYKPLRAEGTNFRTVLDKAVQADGQVKECYQSHRDTIVLLCKPEPELNAAIPSANPAKTMQGSEVVNVLKSLLSNLDEVKKEREGLENDLKSVNFDMTSKFLTALAQDGVINEEALSVTELDRVYGGLTTKVQESLKKQEGLLKNIQVSHQEFSKMKQSNNEANLREEVLKNLATAYDNFVELVANLKEGTKFYNELTEILVRFQNKCSDIVFARKTERDELLKDLQQSIAREPSAPSIPTPAYQSSPAGGHAPTPPTPAPRTMPPTKPQPPARPPPPVLPANRAPSATAPSPVGAGTAAPAPSQTPGSAPPPQAQGPPYPTYPGYPGYCQMPMPMGYNPYAYGQYNMPYPPVYHQSPGQAPYPGPQQPSYPFPQPPQQSYYPQQ
B7: ACINU_HUMAN (protein, UniProt Q9UKV3 1-1341, looked up)
Apoptotic chromatin …: MWRRKHPRTSGGTRGVLSGNRGVEYGSGRGHLGTFEGRWRKLPKMPEAVGTDPSTSRKMAELEEVTLDGKPLQALRVTDLKAALEQRGLAKSGQKSALVKRLKGALMLENLQKHSTPHAAFQPNSQIGEEMSQNSFIKQYLEKQQELLRQRLEREAREAAELEEASAESEDEMIHPEGVASLLPPDFQSSLERPELELSRHSPRKSSSISEEKGDSDDEKPRKGERRSSRVRQARAAKLSEGSQPAEEEEDQETPSRNLRVRADRNLKTEEEEEEEEEEEEDDEEEEGDDEGQKSREAPILKEFKEEGEEIPRVKPEEMMDERPKTRSQEQEVLERGGRFTRSQEEARKSHLARQQQEKEMKTTSPLEEEEREIKSSQGLKEKSKSPSPPRLTEDRKKASLVALPEQTASEEETPPPLLTKEASSPPPHPQLHSEEEIEPMEGPAPAVLIQLSPPNTDADTRELLVSQHTVQLVGGLSPLSSPSDTKAESPAEKVPEESVLPLVQKSTLADYSAQKDLEPESDRSAQPLPLKIEELALAKGITEECLKQPSLEQKEGRRASHTLLPSHRLKQSADSSSSRSSSSSSSSSRSRSRSPDSSGSRSHSPLRSKQRDVAQARTHANPRGRPKMGSRSTSESRSRSRSRSRSASSNSRKSLSPGVSRDSSTSYTETKDPSSGQEVATPPVPQLQVCEPKERTSTSSSSVQARRLSQPESAEKHVTQRLQPERGSPKKCEAEEAEPPAATQPQTSETQTSHLPESERIHHTVEEKEEVTMDTSENRPENDVPEPPMPIADQVSNDDRPEGSVEDEEKKESSLPKSFKRKISVVSATKGVPAGNSDTEGGQPGRKRRWGASTATTQKKPSISITTESLKSLIPDIKPLAGQEAVVDLHADDSRISEDETERNGDDGTHDKGLKICRTVTQVVPAEGQENGQREEEEEEKEPEAEPPVPPQVSVEVALPPPAEHEVKKVTLGDTLTRRSISQQKSGVSITIDDPVRTAQVPSPPRGKISNIVHISNLVRPFTLGQLKELLGRTGTLVEEAFWIDKIKSHCFVTYSTVEEAVATRTALHGVKWPQSNPKFLCADYAEQDELDYHRGLLVDRPSETKTEEQGIPRPLHPPPPPPVQPPQHPRAEQREQERAVREQWAEREREMERRERTRSEREWDRDKVREGPRSRSRSRDRRRKERAKSKEKKSEKKEKAQEEPPAKLLDDLFRKTKAAPCIYWLPLTDSQIVQKEAERAERAKEREKRRKEQEEEEQKEREKEAERERNRQLEREKRREHSRERDRERERERERDRGDRDRDRERDRERGRERDRRDTKRHSRSRSRSTPVRDRGGRR
B8: KT33A_HUMAN (protein, UniProt O76009 1-404, looked up)
Keratin, type I cuticular …: MSYSCGLPSLSCRTSCSSRPCVPPSCHGCTLPGACNIPANVSNCNWFCEGSFNGSEKETMQFLNDRLASYLEKVRQLERDNAELENLIRERSQQQEPLVCASYQSYFKTIEELQQKILCSKSENARLVVQIDNAKLASDDFRTKYETELSLRQLVESDINGLRRILDELTLCRSDLEAQVESLKEELLCLKQNHEQEVNTLRCQLGDRLNVEVDAAPTVDLNQVLNETRSQYEALVETNRREVEQWFATQTEELNKQVVSSSEQLQSYQAEIIELRRTVNALEIELQAQHNLRDSLENTLTESEARYSSQLSQVQRLITNVESQLAEIRSDLERQNQEYQVLLDVRARLECEINTYRSLLESEDCKLPSNPCATTNACDKSTGPCISNPCGLRARCGPCNTFGY
B9: HNRPQ_HUMAN (protein, UniProt O60506 2-623, looked up)
Heterogeneous nuclear …: ATEHVNGNGTEEPMDTTSAVIHSENFQTLLDAGLPQKVAEKLDEIYVAGLVAHSDLDERAIEALKEFNEDGALAVLQQFKDSDLSHVQNKSAFLCGVMKTYRQREKQGTKVADSSKGPDEAKIKALLERTGYTLDVTTGQRKYGGPPPDSVYSGQQPSVGTEIFVGKIPRDLFEDELVPLFEKAGPIWDLRLMMDPLTGLNRGYAFVTFCTKEAAQEAVKLYNNHEIRSGKHIGVCISVANNRLFVGSIPKSKTKEQILEEFSKVTEGLTDVILYHQPDDKKKNRGFCFLEYEDHKTAAQARRRLMSGKVKVWGNVGTVEWADPIEDPDPEVMAKVKVLFVRNLANTVTEEILEKAFSQFGKLERVKKLKDYAFIHFDERDGAVKAMEEMNGKDLEGENIEIVFAKPPDQKRKERKAQRQAAKNQMYDDYYYYGPPHMPPPTRGRGRGGRGGYGYPPDYYGYEDYYDYYGYDYHNYRGGYEDPYYGYEDFQVGARGRGGRGARGAAPSRGRGAAPPRGRAGYSQRGGPGSARGVRGARGGAQQQRGRGVRGARGGRGGNVGGKRKADGYNQPDSKRRQTNNQNWGSQPIAQQPLQGGDHSGNYGYKSENQEFYQDTFGQQWK

Test system: KDM4A-I71AzF
Assay: CASI: photo-crosslinking with HEK293T cell extracts, StrepTactin enrichment and LC-MS/MS proteomics;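 note: lysates from HEK293T cells pretreated with a KDM4 inhibitor to raise proteome methylation, affinity-purified after ±UV, gel-resolved, trypsin-digested, with exclusive unique peptides per protein averaged per condition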
Type: binding, human
Conditions: sheet "Final results but with 0.01"

Molecule	Fold change (+UV/-UV)
B1	200
B2	800
B3	200
B4	1.778
B5	200
B6	200
B7	2
B8	300
B9	200
